{"source": "patent US20250154231A1", "about": "(RQBIO COVID, published 2025)"}
{"molecular_target": "T1, Omicron BA.1 RBD (SARS-CoV-2, UniProt P0DTC2 333-528)", "T1 construct": "domain: RBD", "assay": "ELISA"}
{"binder": "Omi29 (antibody, V domains shown) VH: QVQLVESGGGLVQPGGSLRLSCAASGLIVSRNYMSWVRQAPGKGLEWVSLIYAGGSTFYSDSVKGRFTISRHSSENTLFLQMNSLRAEDTAVYYCARDLVHYGMDVWGQGTTVTVSS VL: NFMLTQPASVSGSPGQSITISCTGTSSDVGGYNYVSWYQQHPGKAPKLMIYDVSNRPSGVSNRFSGSNSGNTASLTISGLQAEDEADYYCSSYTSGSTWVFGGGTKLTVL", "binding result": "binds"}
{"binder": "Omi16 (antibody, V domains shown) VH: EVQLVESGGGVVQPGGSLRLSCAASGIIVSANYMTWVRQAPGKGLEWVSVIYPGGSTFYADSVKGRFTISRDNSKNTLYLQMNSLRVEDSAVYYCARDLELAGFNDFWGQGTLVTVSS VL: DVVMTQSPGTLALSPGERATLSCRTSQSVSSNYLAWYQQKPGQAPRLLIYGASSRATGIPDRFSGSGSGTDFTLTISRLEPEDFAVYYCQQFGSSPRYTFGQGTKVEIK", "binding result": "binds"}
{"binder": "Omi17 (antibody, V domains shown) VH: QVQLVESGGGVVQPGGSLRLSCAASGVTVSSNYMSWVRQAPGKGLEWVSVLYAGGSTFYADSVKGRFTISRDNSKNTLYLQMNSLRAEDTAAYYCARDLAVAGFLDSWGQGTLVTVSS VL: DIVMTQSPGTLSLSPGERATLSCRASQGVSSIYLAWYQQKPGQAPRLVLYGASSRATGIPDRFSGSGSGTDFTLTISRLEPEDFAVYYCQQYGSSPRYTFGQGTKVEIK", "binding result": "binds"}
{"binder": "Omi23 (antibody, V domains shown) VH: QVQLQESGPGLVKSSQTLSLTCTVSGDSISRGGYYWSWIRQHPGKGLEWIGSIYYSGSTYYNPSLKSRFTISVDTSKNQFSLKLSSVTAADTAVYHCAREIGFLDYWGQGTLVTVSS VL: AIQMTQSPSSLSASVGDRVTITCRASQAISNSLAWYQQKPGKAPKLLLYAASTLESGVPSRFSGSGSGTDFTLTISSLQPEDFATYFCQQYYSTPPRTFGQGTKVDIK", "binding result": "binds"}
{"binder": "Omi27 (antibody, V domains shown) VH: EVQLLESGGGLVQPGGSLRLSCVASGLTVSSNYMSWVRQAPGKGLEWVSIIYPGGTTYYADSVKGRFTTSRDKSKNTLYLQMNSLRAEDTAVYYCARDLAVAGGMDVWGQGTTVTVSS VL: EIVMTQSPSSLSASVGDRVTITCRASQGIGNDLGWYQQKPGKAPKVLIYAASNLQSGVPSRFSGSGSGTDFTLTISSLQPEDFATYYCLQDSNYPYTFGQGTKVEIK", "binding result": "binds"}
{"binder": "Omi24 (antibody, V domains shown) VH: QVQLVESGAEVKKPGSSVKVSCKASGGTFSSHGVIWVRQAPGQGLEWMGGIIPIFPTANYAQKFQGRVTITADKPSNTAYMELSSLRSEDTAVYYCARARGEHDSVWGSFHYYFDYWGQGTLVTVSS VL: not shown", "binding result": "binds"}
{"binder": "Omi25 (antibody, V domains shown) VH: QVQLVESGGGLVQPGRSLRLSCAASGFTFDDYAMHWVRQVPGKGLEWVSGISWNSGSIVYADFVKGRFTIARDNAKNSLFLQMNSLRAEDTALYYCAKSTALRHQYYYGMDVWGQGTTVTVSS VL: AIQMTQSPSSLSASVGDRVTITCRTSQTISSYLNWYQQKPGKAPKLLIYDASSLQSGVPSRFSGSGYGTDFTLTISSLQPEDFATYFCQQSYNTPYAFGQGTKVEIK", "binding result": "binds"}
{"binder": "Omi28 (antibody, V domains shown) VH: EVQLVESGGGLVQPGGSLRLSCAASGVIVSSNYMSWVRQAPGKGLQWVSVIYSGGSTFYADSVKGRFTISRDNSKNTLYLQMNSLRAEDTAVYYCARDLLEAGGTDYWGQGTLVTVSS VL: DVVMTQSPGTLSLSPGERATLSCRASQFIGSSYLAWYQQKPGQAPRLLIYGASNRATGVPDRFSGSGSGTDFTLTISRLEPEDFAVYYCQQYGSAPGTFGQGTKVEIK", "binding result": "binds"}
{"binder": "Omi26 (antibody, V domains shown) VH: QVQLVQSGTEVKKPGASVKVSCKASDYTFTRFGIIWVRQAPGQGLEWMGQINPYNGNTDYAQKFQGRVTLTTDTSTNTAYMELRSLRSDDTAVYYCARSAGSPTGLDYWGQGTLVTVSS VL: QSVVTQPPSVSEAPRQRVTISCSGSNSNIGNNAVNWYQQLPGKAPKLLVYYDDLLPSGVSDRFSGSKSGTSASLAISGLQSEDKADYYCAAWDDSLNALVFGGGTKLTVL", "binding result": "binds"}
